# Assay results as given in patent publication US20170226560.
# Test system: T1, peptide substrate SEQ ID NO: 1 Lys-Lys-Gly-Phe-Pro-Arg-Gly-Gly-Asp-Cys
# T1 sequence: KKGFPRGGDC
substance,measurement,value
trypsin,"limit of detection of trypsin (750 nM peptide, 60 min pre-exposure, 20 nm gold nanoparticles)",the limit of detection of the colloidal gold nanoparticle-based colorimetric assay developed in the present invention for sensing trypsin is about 20 pM of trypsin
same,"limit of detection of trypsin (750 nM peptide, 3 hours pre-exposure, 20 nm gold nanoparticles)",from 20 pM to approximately 2 to 10 pM
same,"limit of detection of trypsin (750 nM peptide, 3 hours pre-exposure, 30 nm gold nanoparticles)",further improved from about 2 to 10 pM to a range of from 500 fM to 2 pM
same,"ratio of the absorbance at 650 nm/absorbance at 520 nm (750 nM peptide, 60 min pre-exposure, trypsin up to 2 nM)",As the amount of trypsin is increased the absorbance band shifts toward what the gold nanoparticles show in the absence of any peptide and the ratio approaches a value of about 0.05
same,"time for complete hydrolytic cleavage (gold nanoparticle aggregation, ratio of absorbance at 650 nm to 520 nm; 1000 nM peptide, 200 pM trypsin, 20 C)",it took more than 60 min for complete hydrolytic cleavage of a solution of 1000 nM of the peptide substrate SEQ ID NO: 1 Lys-Lys-Gly-Phe-Pro-Arg-Gly-Gly-Asp-Cys by trypsin at a concentration of 200 pM
